Tested on: U251 human glioblastoma cell line
Assay: in vitro FM-HCR assay of MGMT activity (mPlum O^6MeG reporter plasmid)
Assay type: cell-based
Settings: for Reporter expression (%) mean, O^6BG: 100 μM O^6BG; for Reporter expression (%) mean, O^6BG / Reporter expression (%) mean, DMSO: U251 cells, flow cytometry 24 h after transfection, damaged/undamaged reporter, inversely related to MGMT activity; for Reporter expression (%) mean, DMSO: 0.1% DMSO; for MGMT activity (a.u.) DMSO / MGMT activity (% of WT) DMSO: DMSO condition; for MGMT activity (a.u.) DMSO / MGMT activity (a.u.) O^6BG: determined from percent reporter expression; for MGMT activity (% of WT) DMSO / MGMT activity (% of WT) O^6BG: relative to wild-type MGMT in same condition; for Relative MGMT activity (%): MGMT activity (a.u.) in O^6BG divided by DMSO x 100, higher values indicate resistance; for MGMT activity (a.u.) O^6BG / MGMT activity (% of WT) O^6BG: O^6BG condition; for Ratio percent reporter expression (O^6BG/DMSO): lower values indicate resistance to O^6BG; for O^6BG resistance relative to WT (%): percentage difference in relative MGMT activity between variant and wild-type MGMT
Excerpt: The present Example includes, in part, an in vitro fluorescence multiplex host cell reactivation (FM-HCR) assay in which a reporter plasmid with O^6MeG-containing oligonucleotides is used. The oligonucleotides induce transcription errors that lead to expression of fluorescent mPlum protein. Functional MGMT will repair the O^6MeG sites and reduce mPlum expression. This represents a rapid and validated assay system to assess intracellular activity of MGMT. Further description of certain such assays is found in Nagel (2014 PNAS USA 111 (18): E1823-32, which is incorporated herein by reference.
The present Example uses an in vitro FM-HCR assay in which a reporter plasmid with 0° MeG-containing oligonucleotides is used to assay MGMT activity in cells. The O^6MeG-containing oligonucleotides induce transcription errors that lead to expression of fluorescent mPlum protein. Functional MGMT will repair the O'MeG sites and reduce mPlum expression. This represents a rapid and validated assay system to assess intracellular activity of MGMT. Further description of certain such assays is found in Nagel et al., 2014 PNAS USA 111 (18): E1823-32 and Piett et al., 2021 Nat. Protoc. 16 (9): 4265-4298, each of which is incorporated herein by reference.
The in vitro FM-HCR assay was performed using the U251 human glioblastoma cell line. The cells were cultured in DMEM with 10% FBS and passaged every three days.
To express MGMT variants in the cells, plasmids encoding each MGMT variant were designed and generated by either de novo synthesis or cloning into the pTwist EF1 Alpha Puro vector at the HindII-BamHI multiple cloning site. The pTwist EF1 Alpha Puro plasmid vector drives expression of the MGMT transcript from a human EF1-alpha promoter including intron 1 and an SV40 polyadenylation signal. Plasmids encoding the MGMT variants were purified using standard molecular biology techniques from E. coli with low endotoxins. Plasmids encoding wild-type MGMT or O^6BG-resistant MGMT^P140K were also designed and generated for use as controls.
To perform the in vitro FM-HCR assay, U251 cells were seeded in 12-well plates at a density of 50,000 cells per well in 1 mL culture media. The following day, the media was changed to 1 mL of culture media containing O^6BG (100 μM O^6BG and 0.1% DMSO final) or 0.1% DMSO; and the cells were transfected with 1,000 ng of a plasmid cocktail using Lipofectamine 3000 (ThermoFisher Scientific) at 1.8 μL Lipofectamine 3000 Reagent and 2 μL P3000 reagent in Opti-MEM medium (ThermoFisher Scientific). […] For the “undamaged” condition, the plasmid cocktail replaced the mPlum O^6MeG reporter plasmid with 100 ng of a plasmid expressing mPlum. The plasmid encoding BFP was used as an internal transfection control. For transfections where no MGMT encoding plasmid is used (no pMGMT), 250 ng of additional carrier plasmid was used to maintain a total DNA amount of 1,000 ng in each transfection. Four hours after transfection, the transfection medium was changed.
All transfected cells were analyzed by flow cytometry at 24-hours after transfection. Data was analyzed as previously described in Nagel et al., 2014 PNAS USA 111 (18): E1823-32 and Piett et al., 2021 Nat. Protoc. 16 (9): 4265-4298. For each condition, normalized reporter expression was determined by taking the product of the mPlum-positive cell count and the mean mPlum fluorescence intensity in mPlum-positive cells and dividing it by the product of the BFP-positive cell count and the mean BFP fluorescence intensity in BFP-positive cells. Next, for each MGMT variant, the percent reporter expression was determined by taking the normalized reporter expression in the “damaged” condition and dividing it by the normalized reporter expression in the “undamaged” condition, and then multiplying by 100 to obtain a percent value. […]

Molecule | Reporter expression (%) mean, O^6BG | Reporter expression (%) mean, DMSO | MGMT activity (a.u.) DMSO | MGMT activity (% of WT) DMSO | Relative MGMT activity (%) | MGMT activity (a.u.) O^6BG | MGMT activity (% of WT) O^6BG | Ratio percent reporter expression (O^6BG/DMSO) | O^6BG resistance relative to WT (%)
P140K: O^6BG-resistant MGMT polypeptide with K at position 140, SEQ ID NO: 8; used as control (protein, REGION 1..207: note = Synthetic: MGMTP140K, used as control) MDKDCEMKRTTLDSPLGKLELSGCEQGLHEIKLLGKGTSAADAVEVPAPAAVLGGPEPLMQCTAWLNAYFHQPEAIEEFPVPALHHPVFQQESFTRQVLWKLLKVVKFGEVISYQQLAALAGNPKAARAVGGAMRGNPVKILIPCHRVVCSSGAVGNYSGGLAVKEWLLAHEGHRLGKPGLGGSSGLAGAWLKGAGATSGSPPAGRN | 34.8% | 30.2% | 3.31 a.u. | 61.3 % of WT | 86.8% | 2.87 a.u. | 201.1 % of WT | 1.15 | 228.4%
L33W: MGMT polypeptide with mutation L33W (protein) MDKDCEMKRTTLDSPLGKLELSGCEQGLHEIKWLGKGTSAADAVEVPAPAAVLGGPEPLMQCTAWLNAYFHQPEAIEEFPVPALHHPVFQQESFTRQVLWKLLKVVKFGEVISYQQLAALAGNPKAARAVGGAMRGNPVPILIPCHRVVCSSGAVGNYSGGLAVKEWLLAHEGHRLGKPGLGGSSGLAGAWLKGAGATSGSPPAGRN | 57.7% | 14.3% | 6.98 a.u. | 129.1 % of WT | 24.9% | 1.73 a.u. | 121.4 % of WT | 4.02 | −6.0%
L33R: MGMT polypeptide with mutation L33R (protein) MDKDCEMKRTTLDSPLGKLELSGCEQGLHEIKRLGKGTSAADAVEVPAPAAVLGGPEPLMQCTAWLNAYFHQPEAIEEFPVPALHHPVFQQESFTRQVLWKLLKVVKFGEVISYQQLAALAGNPKAARAVGGAMRGNPVPILIPCHRVVCSSGAVGNYSGGLAVKEWLLAHEGHRLGKPGLGGSSGLAGAWLKGAGATSGSPPAGRN | 58.3% | 15.0% | 6.67 a.u. | 123.3 % of WT | 25.7% | 1.71 a.u. | 120.0 % of WT | 3.89 | −2.7%
L33K: MGMT polypeptide with mutation L33K (protein) MDKDCEMKRTTLDSPLGKLELSGCEQGLHEIKKLGKGTSAADAVEVPAPAAVLGGPEPLMQCTAWLNAYFHQPEAIEEFPVPALHHPVFQQESFTRQVLWKLLKVVKFGEVISYQQLAALAGNPKAARAVGGAMRGNPVPILIPCHRVVCSSGAVGNYSGGLAVKEWLLAHEGHRLGKPGLGGSSGLAGAWLKGAGATSGSPPAGRN | 62.3% | 16.0% | 6.25 a.u. | 115.6 % of WT | 25.7% | 1.61 a.u. | 112.4 % of WT | 3.89 | −2.7%
L33P: MGMT polypeptide with mutation L33P (protein) MDKDCEMKRTTLDSPLGKLELSGCEQGLHEIKPLGKGTSAADAVEVPAPAAVLGGPEPLMQCTAWLNAYFHQPEAIEEFPVPALHHPVFQQESFTRQVLWKLLKVVKFGEVISYQQLAALAGNPKAARAVGGAMRGNPVPILIPCHRVVCSSGAVGNYSGGLAVKEWLLAHEGHRLGKPGLGGSSGLAGAWLKGAGATSGSPPAGRN | 54.7% | 12.3% | 8.11 a.u. | 150.0 % of WT | 22.6% | 1.83 a.u. | 128.0 % of WT | 4.43 | −14.6%
M134F: MGMT polypeptide with mutation M134F (protein) MDKDCEMKRTTLDSPLGKLELSGCEQGLHEIKLLGKGTSAADAVEVPAPAAVLGGPEPLMQCTAWLNAYFHQPEAIEEFPVPALHHPVFQQESFTRQVLWKLLKVVKFGEVISYQQLAALAGNPKAARAVGGAFRGNPVPILIPCHRVVCSSGAVGNYSGGLAVKEWLLAHEGHRLGKPGLGGSSGLAGAWLKGAGATSGSPPAGRN | 97.0% | 51.3% | 1.95 a.u. | 36.0 % of WT | 52.9% | 1.03 a.u. | 72.2 % of WT | 1.89 | 100.2%
L33Y: MGMT polypeptide with mutation L33Y (protein) MDKDCEMKRTTLDSPLGKLELSGCEQGLHEIKYLGKGTSAADAVEVPAPAAVLGGPEPLMQCTAWLNAYFHQPEAIEEFPVPALHHPVFQQESFTRQVLWKLLKVVKFGEVISYQQLAALAGNPKAARAVGGAMRGNPVPILIPCHRVVCSSGAVGNYSGGLAVKEWLLAHEGHRLGKPGLGGSSGLAGAWLKGAGATSGSPPAGRN | 77.3% | 17.0% | 5.88 a.u. | 108.8 % of WT | 22.0% | 1.29 a.u. | 90.6 % of WT | 4.54 | −16.7%
L33F: MGMT polypeptide with mutation L33F (protein) MDKDCEMKRTTLDSPLGKLELSGCEQGLHEIKFLGKGTSAADAVEVPAPAAVLGGPEPLMQCTAWLNAYFHQPEAIEEFPVPALHHPVFQQESFTRQVLWKLLKVVKFGEVISYQQLAALAGNPKAARAVGGAMRGNPVPILIPCHRVVCSSGAVGNYSGGLAVKEWLLAHEGHRLGKPGLGGSSGLAGAWLKGAGATSGSPPAGRN | 77.0% | 14.3% | 6.98 a.u. | 129.1 % of WT | 18.6% | 1.30 a.u. | 90.9 % of WT | 5.37 | −29.6%
